Assay [1] has as its target human leukemia inhibitory factor (LIF), soluble (human) (UniProt P15018). Put plainly: yeast surface display, flow cytometry; Score column of the table of sorted gp130 CBM variants (the filing gives 100 pM and 1 nM human LIF for the gp130 binding scores). (In flow cytometry, cells or beads pass a laser one at a time.)
For assay [2] the target is unchanged. The assay can be described thus: yeast surface display, flow cytometry; soluble human LIF titrated (0.001 to 100 nM), detected with a fluorescent antibody.
Assay [3] has the same target. The assay can be described thus: yeast surface display, flow cytometry; score from summed fluorescence at 10 pM and 100 pM human LIF, normalized to wild-type and to expression.

Sequence of human leukemia inhibitory factor (LIF), soluble (human) (P15018 23-202 limits assumed): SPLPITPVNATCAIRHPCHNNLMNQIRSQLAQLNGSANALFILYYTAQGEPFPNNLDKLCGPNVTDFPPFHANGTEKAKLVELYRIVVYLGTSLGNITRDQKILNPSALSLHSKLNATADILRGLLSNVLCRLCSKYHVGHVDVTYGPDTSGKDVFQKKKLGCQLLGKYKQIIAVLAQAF

For the substance ELDI (receptor), the Score (binding score) in assay [1] is 15.9. Still for that read-out and setting: the figure for ELRDSLE (receptor) is 23.6. By EC50 (read off the curve) is commonly meant the midpoint of the concentration-response curve. Read a low EC50 (read off the curve) as greater potency. Substance PDD (receptor) showed a concentration giving a half-maximal response (EC50 (read off the curve)) in assay [2] of 0.4 nM. Besides, the Score (normalized binding score) in assay [3] was determined as 7.71. Regarding PRDSAID (receptor), in assay [3], the Score (normalized binding score) was 15.8. Regarding PVVIDN (receptor), in assay [3], the Score (normalized binding score) is 13.9.
